According to publication PMC12584617:

System: T1, NsrX (Alr1976) (Anabaena sp. strain PCC 7120), ORF:44a8eb4f
T1 sequence: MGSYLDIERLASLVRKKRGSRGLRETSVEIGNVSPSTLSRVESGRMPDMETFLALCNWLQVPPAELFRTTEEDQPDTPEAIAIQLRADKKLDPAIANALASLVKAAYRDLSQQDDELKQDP
Test: EMSA
Conditions: 10 mM Bis-Tris-HCl pH 7.5, 40 mM KCl, 0.1 mg/mL BSA, 5% glycerol, 50 ng DNA, 50-100 ng ifpkn22 competitor, 30 min room temperature; NsrX +100 uM MnCl2 (also in …)

| Sequence | binding |
| --- | --- |
| CATCTTGGAAACCAAGTTGCACAAACATCAGTAAGACAATAAAAGCAATGCCAGCTACAGCTATAAGAAAACGAATTTTCTGTTGGACTAGCTGTAGCCATGCTAAAGGAATTTTAAAATTCATATTGATTTTGTCAGTTGACAGTTGATAGTTGATAGTTGTCAGTTGACTAATGACAATTAAATTTGAATCGCTACATCAACTTGTAAGTTGGTCAAACGTCCTACCCGTTCGCTATCTGCG (double strand) [PhgdC] | binds |
| GGCGTGTGGCTCTTGTTCTAGTAGTACAGCCACCTTAAAGATAGCGATTGAATCCAGATTACGCGATCGCATCAACCCCAGCCTAGTAGTAGAAGCAGTTTAGTTAACAGTTAACAGTAAACCGTTAACTAACACCCAAAAGAACTTTCACAACTACATAACGAACCCATCATGAACACTAATTCTACTGGTTTTTCTGTGGAGCGATCGCCCCCTCTTCGGCGACGTTCTACAAACCCCTCACAGCCATAGCTCAACAGGCGTGAGATCCAAACACAAAGACCGACCAACTAACCAACC (double strand) [PnifHDK] | binds |
